Assay [1] addresses T1, human PD-L1 Fc (R&D Systems, 156-B7) (human, UniProt Q9NZQ7 19-239).
T1 construct: Bought protein; not shown: Fc tag of the bought fusion protein
The experiment in a line: SPR, BIAcore T200; mAb2 captured on Protein L, PD-L1 Fc injected. The method, then:
(§1) Protein L (Thermo, 21189) was immobilized on flow cells 1 and 2 of a Series S CM5 chip (GE Healthcare, BR-1005-30) by amine coupling (GE Healthcare, BR-1000-50) to a surface density of 2000 RU by following the manufacturer's instructions for the BIAcore T200 instrument. […] The association time was 3 min and the dissociation time was 6 min. Running buffer was HBS-P (GE Healthcare, BR-1003-68). Both flow cells were regenerated by injecting 10 mM sodium hydroxide (NaOH) at a flow rate of 100 μl/min for 20 seconds. The data were analysed by double referencing against the blank flow cell.
(§2) The binding kinetics were fit with a 1:1 Langmuir model to generate binding association (kₐ) and dissociation (kd) rates. Equilibrium binding constants (KD) were calculated by dividing the dissociation rate by the association rate for each sample. Data analysis was performed with BiaEvaluation software version 3.2.

The target in assay [2] is T2, cynomolgus LAG-3 expressed on cells (cynomolgus monkey, UniProt P18627 24-525 (human entry)).
T2 construct: also called cLAG-3; cyno LAG-3
T2 chain: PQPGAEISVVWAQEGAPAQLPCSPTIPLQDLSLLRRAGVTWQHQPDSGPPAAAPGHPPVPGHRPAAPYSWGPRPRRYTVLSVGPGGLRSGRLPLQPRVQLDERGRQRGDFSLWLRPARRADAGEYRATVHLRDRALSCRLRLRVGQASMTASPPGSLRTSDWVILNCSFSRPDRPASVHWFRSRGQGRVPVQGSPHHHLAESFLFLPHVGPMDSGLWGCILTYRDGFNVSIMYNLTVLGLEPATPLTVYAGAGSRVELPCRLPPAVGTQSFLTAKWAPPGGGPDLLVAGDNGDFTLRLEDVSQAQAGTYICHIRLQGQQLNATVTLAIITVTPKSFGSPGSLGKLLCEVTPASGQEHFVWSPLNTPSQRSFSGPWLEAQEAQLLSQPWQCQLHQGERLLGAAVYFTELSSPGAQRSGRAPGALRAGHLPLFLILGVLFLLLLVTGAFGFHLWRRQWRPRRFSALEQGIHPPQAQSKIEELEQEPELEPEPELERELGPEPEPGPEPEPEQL
The experiment in a line: flow cytometry on HEK cells expressing cynomolgus LAG-3. As to the method:
(§3) The affinity of the mAb² (all containing the LALA mutation) for cell expressed human or cynomolgus LAG-3 was determined using flow cytometry. HEK cells expressing human or cynomolgus LAG-3 grown in DMEM (Life Technologies, 61965-026) containing 10% FBS (Life Technologies, 10270-1-6), 100 μg/ml Hygromycin B (Melford Laboratories Ltd, Z2475), 15 μg/ml Blasticidin (Melford Laboratories Ltd, B1105) and 1 μg/ml Doxycyclin (Sigma, D9891) were detached from tissue culture flasks using cell dissociation buffer (Life Technologies, 13151-014) and seeded in V-bottom 96-well plates (Costar, 3897) at 2×10⁵ cells/well. The plates were centrifuged at 1500 rpm for 3 min at 4° C. to pellet the cells. A dilution series of the mAb² (or control mAb) were incubated with the cells in a 100 μl volume for 1 h at 4° C. The plates were washed and secondary antibody (Anti-human Fc-488, Jackson ImmunoResearch, 109-546-098) was diluted 1:1000 in PBS and 100 μl was added to the cells for 30 min at 4° C. (plates were kept in the dark). The plates were washed and then cells were resuspended in 100 μl PBS containing 1 μg/ml DAPI (Biotium, 40043). The plates were read using Canto II flow cytometer (BD Bioscience). Dead cells were excluded and the fluorescence in the FITC channel (488 nm/530/30) was measured. The data was fit using log (agonist) vs response in GraphPad Prism Software. The plates were read on a BD FACSCanto II cytometer (BD Biosciences) and the data analysed using FlowJo.

Assay [3] deals with T3, human LAG-3 expressed on cells (human, UniProt P18627 23-525).
T3 construct: also called hLAG-3; DO11.10 hLAG-3
T3 sequence: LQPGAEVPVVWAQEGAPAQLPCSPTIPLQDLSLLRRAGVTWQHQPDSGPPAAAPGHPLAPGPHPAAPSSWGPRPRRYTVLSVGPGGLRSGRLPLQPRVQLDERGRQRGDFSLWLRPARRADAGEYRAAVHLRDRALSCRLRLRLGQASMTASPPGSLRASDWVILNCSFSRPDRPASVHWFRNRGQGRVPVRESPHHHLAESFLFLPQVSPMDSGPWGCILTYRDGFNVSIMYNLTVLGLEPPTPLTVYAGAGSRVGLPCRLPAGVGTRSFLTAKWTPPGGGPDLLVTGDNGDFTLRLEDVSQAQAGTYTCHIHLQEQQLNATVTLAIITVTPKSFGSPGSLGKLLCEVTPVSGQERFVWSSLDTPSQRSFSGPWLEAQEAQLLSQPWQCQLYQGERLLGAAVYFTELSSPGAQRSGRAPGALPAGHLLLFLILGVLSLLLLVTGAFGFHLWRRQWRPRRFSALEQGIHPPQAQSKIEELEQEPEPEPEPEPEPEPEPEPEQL
The experiment in a line: flow cytometry on HEK cells expressing human LAG-3. As to the method:
as §3

The target in assay [4] is human PD-L1 expressed on cells (human, UniProt Q9NZQ7 19-290). The experiment in a line: cell-based or functional assay.
human PD-L1 expressed on cells, sequence (Q9NZQ7 19-290 limits assumed): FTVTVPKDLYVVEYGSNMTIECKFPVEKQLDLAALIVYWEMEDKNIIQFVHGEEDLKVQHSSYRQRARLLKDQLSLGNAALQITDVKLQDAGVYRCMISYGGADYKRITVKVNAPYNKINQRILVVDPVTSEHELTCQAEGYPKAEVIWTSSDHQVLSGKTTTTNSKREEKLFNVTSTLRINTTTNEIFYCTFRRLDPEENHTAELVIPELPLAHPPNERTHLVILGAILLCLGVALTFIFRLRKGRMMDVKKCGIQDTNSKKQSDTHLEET
For assay [5], the target named is T4, recombinant Fc-tagged human LAG-3 (R&D Systems, 2319-L3-050) (human, UniProt P18627 23-450).
T4 construct: Bought protein; also called LAG-3 Fc; human LAG-3-Fc; not shown: Fc tag of the bought fusion protein
T4 sequence: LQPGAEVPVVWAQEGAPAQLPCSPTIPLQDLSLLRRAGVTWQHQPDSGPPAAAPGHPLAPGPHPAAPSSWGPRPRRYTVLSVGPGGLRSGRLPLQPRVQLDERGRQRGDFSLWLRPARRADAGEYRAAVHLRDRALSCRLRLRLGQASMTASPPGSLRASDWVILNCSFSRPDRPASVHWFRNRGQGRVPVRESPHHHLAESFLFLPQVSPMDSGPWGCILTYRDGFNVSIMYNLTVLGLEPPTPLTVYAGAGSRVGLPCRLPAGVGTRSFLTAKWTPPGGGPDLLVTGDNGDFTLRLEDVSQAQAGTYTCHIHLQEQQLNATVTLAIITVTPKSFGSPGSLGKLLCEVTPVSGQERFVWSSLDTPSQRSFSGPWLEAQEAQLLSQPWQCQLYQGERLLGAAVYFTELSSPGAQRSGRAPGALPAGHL
The experiment in a line: SPR, BIAcore T200; mAb2 captured on Protein L, human LAG-3 Fc injected. The method, then:
as §1, §2

Changes are numbered by the printed parent chain. Some results are limits rather than exact numbers.

T1 sequence (Q9NZQ7 19-239 limits assumed): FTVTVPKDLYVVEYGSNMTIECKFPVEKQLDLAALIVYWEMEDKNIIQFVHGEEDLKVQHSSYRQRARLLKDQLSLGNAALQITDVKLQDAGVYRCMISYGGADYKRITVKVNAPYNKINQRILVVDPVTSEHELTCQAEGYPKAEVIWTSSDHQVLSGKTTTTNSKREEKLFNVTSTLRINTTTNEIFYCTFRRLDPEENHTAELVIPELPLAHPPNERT

B1: anti-human LAG-3/PD-L1 mAb2 FS18-7-62/84G09 with LALA mutation (bispecific antibody, human IgG1, kappa, L234A L235A)
heavy: EVQLVESGGGLVQPGRSLRLSCAASGFTFDDYAMHWVRQTPGKGLEWVSGISWKSNIIGYADSVKGRFTISRDNAKNSLYLQMNSLRAEDTALYYCARDITGSGSYGWFDPWGQGTLVTVSSASTKGPSVFPLAPSSKSTSGGTAALGCLVKDYFPEPVTVSWNSGALTSGVHTFPAVLQSSGLYSLSSVVTVPSSSLGTQTYICNVNHKPSNTKVDKKVEPKSCDKTHTCPPCPAPEAAGGPSVFLFPPKPKDTLMISRTPEVTCVVVDVSHEDPEVKFNWYVDGVEVHNAKTKPREEQYNSTYRVVSVLTVLHQDWLNGKEYKCKVSNKALPAPIEKTISKAKGQPREPQVYTLPPSWDEPWGEDVSLTCLVKGFYPSDIAVEWESNGIPEWNYKTTPPVLDSDGSFFLYSKLTVPYDRWVWPDEFSCSVMHEALHNHYTQKSLSLSPG
light: DIQMTQSPSSLSASVGDRVTITCRASQSISSYLNWYQQKPGKAPKPLIYVASSLQSGVPSSFSGSGSGTDFTLTISSLQPEDFATYYCQQSYSNPITFGQGTRLEIKRTVAAPSVFIFPPSDEQLKSGTASVVCLLNNFYPREAKVQWKVDNALQSGNSQESVTEQDSKDSTYSLSSTLTLSKADYEKHKVYACEVTHQGLSSPVTKSFNRGEC
notes: also called FS18-7-62/84G09LALA; F518-7-62/84G09LALA
In assay [1], B1 yielded a dissociation constant (Kd) of 1.3 nM, a koff of 0.00022 s⁻¹ and a kon of 170000 M⁻¹ s⁻¹. In assay [2], the concentration for a half-maximal effect (EC50) stood at 26.4 nM and the “fold better binding (EC50) than control antibody 25F7” value was no less than 2 fold. This molecule had an EC50 in assay [3] of 4.08 nM. Also, the “Maximal IL2 release calculated as % ctrl (84G09 + 25F7)” value in assay [4] was 59%. In addition, in assay [5], the Kd stood at 0.036 nM, the off-rate (koff) was 0.0002 s⁻¹ and the association rate constant (kon) was 5.4e+06 M⁻¹ s⁻¹.

B2: anti-human LAG-3/PD-L1 mAb2 FS18-7-78/84G09 with LALA mutation (bispecific antibody, human IgG1, kappa, L234A L235A)
heavy: B1 heavy with I391Y, P392K, W394E
light: B1 light
notes: also called FS18-7-78/84G09 LALA; FS18-7-78/84G09LALA
In assay [1], B2 gave a Kd of 1 nM, a koff of 0.0001 s⁻¹ and an association rate constant (kon) of 100000 M⁻¹ s⁻¹. Also, in assay [2], the EC50 worked out at 24.8 nM and the “fold better binding (EC50) than control antibody 25F7” value was no less than 2 fold. This molecule also registered an EC50 in assay [3] of 2.53 nM. The “Maximal IL2 release calculated as % ctrl (84G09 + 25F7)” value in assay [4] was 64.4%. Moreover, in assay [5], the Kd was 0.029 nM, the koff was found to be 0.00014 s⁻¹ and the kon came to 4.8e+06 M⁻¹ s⁻¹.
